Results: the nanobody polyreactivity screen of Harvey et al. (2022)

Test: yeast display, Sf9 membrane polyspecificity reagent, FACS + sequencing; frameworks hold sequencing errors
How it was run: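 Polyreactivity labels are assigned by the sorting gate from which each nanobody was recovered. The gates were low and high (top ~1%), set on anti-HA fluorescence for expression and streptavidin fluorescence for reagent binding. Before sorting, galactose-induced (36–48 hours) yeast display cells were stained for 1 hour at 4 °C with 10% biotinylated, detergent-solubilized Sf9 membrane reagent.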

Sequence	polyreactivity (PSR sort gate)
QVQLVESGGGLFQAGGSLRLSCAASGITFSKNSMGWYRQAPGQERELVAAITRRSVSKYYADSVKGRFTISRDNENNNLYLQMNSLKPEYTAVYYCAASYSSKHGYWGQGTQVTVSS	high polyreactivity
QVQLVESGGGLVQAGGSLRLSCAASGSIFRYYAMGWYRQAPGKERELVAAISWSVGGTYYADSVKGRFTISRDNAKNTVYLQMNSLKPEDTAVYYCAADVLYTQYGYWGQGTQVTVSS	low polyreactivity
QVQLVESGGGLVQAGGSLSLTWAASGSTFSYYVMGWYRQAPGKETELVAGITRGGRTYYADSENGRFTISRDNAKNSVFLQMNSLKPEDTAVYYCAKDQGGVLELDYWGQGTQVTVSS	low polyreactivity
QVQLVESGGGLVQAGGSLRLSCAASGYIYYQYAMGWSRQAPGKERELVAGINWRGGSTYADSVKGRFTISRDNAKNTVYLQMNSLKPEDTEVYYCNAKQYRQDVFRRPSYYAYYYWGQGTQVTVSS	high polyreactivity
QVQLVESGGGLVQAGGSLRLSCAASGFTFSLYAMGWYRQAPGKERELVASISRSGGSTYYADSVKGRFTISRDNAKNTVYLQMNSLKPEDTAVYYCAARWRPYKYDSWGQGTQVTVSS	high polyreactivity
QVQLVESGGGLVQAGGRLRLSCAASGRIFVRYVMGWYRQAPGKERELVAAISGGGSSTYYADSVKGRFTISRDNAKNTVYLQMNSLKPVDTAVYYCAAKGTRQPRFDFWGQGTQVTVSS	high polyreactivity
QVQLVESGGGLVQAGGSLRLTCAASGRIFRKYAMGWYRQAPGKERELVAAISNGGSTNYADSVKGRFTISRDNAKNTVYLQMNSLKPEDTAVYYCAASYRIYRGDSTGFGYWGQGTQVTVSS	high polyreactivity
QVQLVESGGGLVQAGGRLRLSCAASGIIFYGYAMGWYRQAPGKERELVAAITSYDGSTYYADSVKGRFTISRDNEKNTVYLQMNILKPEDTAFYYCAADYSTYEGWYWFDYWGQGTQVTVSS	high polyreactivity
QVQLVESGGGLVQAGGSLRLSCAASGRTCKPYAMGWYRQAPGKEREVVAVITSNGSSTYYADSVKGRFTISRDNAKNTVYLQMNSLKPEDTAVYYCATKLTYTLTSGAYAYDYWGQGTQVTVSS	low polyreactivity
QVQLVDSGGGLVQAGGSLRLSCAASGSIFVKYAMGCYRQAPGKERELVAAISGSGGSTYYADSVKGRFTISRDNAKNTVSLQMNSLKPEDTAVYYCAADDYFYSGRYGFEFWGQGTQVTVSS	low polyreactivity
QVHLVESVGRLVQEGGSLRLICAASAFNIYTYAMGWSRQAPGKEREMVAAISKSGGSTYSADSVKGRFTISRDNAKNTVYVQMNSLKPVDTAVYYCAVSDARHLGSGRYYWCQGTQVTVSS	low polyreactivity
QVQLVESGGGLVQAGGRLRLSCAASGSTFYRYAMGMYRPAPGKERELVAAINRSGVTTYYADSVKGRFTISRDNAKNTVYLQMNSLKPEDTAVYYCAAVLGRGLDYYYLGQGTQVTVSS	high polyreactivity
QVQLVESGGGLVQAGGSLRLSCAASGSIYTYYAMGWYRQAPGKEMELVADIRWSGGSTYYADSVKGRFTISRDNAKNTVYLQMNSLKPEDTAVYYCNARYYSYCPIYNFDYWGQGTQVTVSS	low polyreactivity
QVQLVESGGGIVQAGGSLRLSCAASGRIFVPNAMGWYRQAPGKERELVAAITSDGRTNYADSVKGRFTISRDNAKHTVYLQMNSLKPEDTAVYYCNAPVVTFGGYQDDVEYGYWGQGTQVTVSS	low polyreactivity
QVQLVESGGGLVQAGGSLRLSCAASGSTFAIYAMGWYRQAPGKERELVAAITRGSTSYADSVKGRFTISRDNAKNTVYLQMNCLKPEDTAVYYCAAEYFLAQVYIYGYWGQGTQVTVSS	high polyreactivity
QVQLVESGGGLVQAGGSLRLSCAASGSTFRTYAMGWYRQAPGQERELVAASDSSGGNTYYADSVKGRCTISRDPAKNTVYLQMNSLKPEDTAVYYCARESVTYFWYYTPEVDYWGQGTQVTVSS	low polyreactivity
QVQLVESGGGLVQAGGSLRLSCAASGRILYSYAMGWYRQAPGKEREFVADIRRSGGSTYYADSVKGRFTISRDNAKNTVYLQMNSLKPEDTAVYYCAKSQSAKGGYDYWGQGTQVTVSS	high polyreactivity
QVQLVESGGGLVQAGGSLRLSCAASGSTFNYYAMGWDRQAPGTVRELVAAITRNGGRKYYADSVKGRFRLSRDNAKNTVYLQMNSLKPEETAVYYCATDTYSYRSIHDMGYWGQGTQVTVSS	high polyreactivity
QVQLVESGGGLVQAGGSLRLSCAASGSTFLINAMGWYRQAPGKERELVAAITASGGSTYADSVKGRFTISRDNAKNTVYLQMNSLKPEDTAVYYCAARYFPRHRYYYWGQGTQVTVSS	high polyreactivity
QVQLVESGGGLVQAGGSLRLSCAASGFTFNQNAMGWYRQAPGKERELVAAISASGGSTYYADSVKGRFTISRDNAKNTVYLQMNSLKPEDTAVYYCAARGTYRYTKYNYWGQGTQVTVSS	high polyreactivity
KVQLVESGGGLVQAGGSLRLSCAASGTSSRYVMGLYRQSTGKERELVAAISWSGDSTYYADSVKGRFTISRDNAKNTVNLQMNSLKPEDTAVYYRAKDADFGLGATSYLEYDYWGQGTQVTVSS	low polyreactivity
QVQLVESGGGLVQAGGSLRLSCAASGSNFLIYAMGSYSQAPGKERELVAAITFSGCSTYADSVKGRFTISRENAKNTVYLQMNSLKPEDTAVYYCAADSTKYAYDYWGQGTQVTVSS	low polyreactivity

Sequence	polyreactivity (PSR sort gate)
QVQHVESGGGLVQAGGSLRLSCAASGNIFYTNAMGWYRQATGKERELVAAISGSGGRTYYADSVKGRFTISRDNAKNTVYLQMNSLKPEDTAVYYCNAVRRDYYDRTYGYWGQGTQVTVSS	low polyreactivity
QVQLVESGGGLVQAGGSLRLSCAASGFTFLKYAIGWYRQAPGKERELVAAISFSTGRTYYADSVKGRFTISRDNAKNTVYLQMNSLKPEDPAVYYGAAGYWPGYSLTYRGGFWGQGTQVTVSS	high polyreactivity
QVQLVESGGGLVQAGGSLRLSCAASGSIYFTNAMGWYRQAPGKERELVAAIRWRGDRTYYADSVKGRFTISRDNGKNTVYLQMNSLIPEDTAVYYCAVAPSYKITEDSWGQGTQVTVSS	low polyreactivity
QVQLQESGGGLVQAGGSLRVSCAASGYISSWYPRGWYRQAPGKEREFVATISPGATTYYADSVKGRFTISRDYAKNTVYLQMNSLKPEDTAVYYCSAGQENNDFYSYWGQGTQVTVSS	low polyreactivity
QVQLVESGGGLVQAGGSLRLSCAASGSTFGFYAMGWYRQAPGKERELVAAISWNDGSTYYADSVKGRFTISRDNAKNTVYLQMNSLKPEDTAVYYCATEYSLWYTRDWQRYEYWGQGTQVTVSS	high polyreactivity
QVQLVESGGGLVQAGGSLRLSCAASGRIFSRYVMGWYRQAPGKERELVAAITSSGGRTYYADSVKGRFTISRDNAKNTVYLQMNSLNPEDTAVYYCNNAPWWRTSSDYEYWGQGTQVTVSS	high polyreactivity
QVQLVESGRGLVQAGGSLRLSCAASGSTINYKAMGWYRQAPGKERELVAAIDSGVSTNYADSVKGLFTISRDHAKNTVYLQMNSLKPEDTAVYYCNADPDYFDYWGQGTQVTVSS	low polyreactivity
QVQLVESGGGLVQAGGSLRLSCAASGSIFDYYAMGWYRQAPGKERELVASITWSGGRTSYADSVKGRFTISRDNAKNTVYLQMNSLKPEDTAVYYCAAKLWSYAYQHKRVWYYYWGQGTQVTVSS	high polyreactivity
QVQLVESGAGLVQAGGSLRLSCAASGIIFASNAMGWYRQAPGKERELLATINWTDSSTYYADSVKGRFTISRDNAKNTVYLQMNSLKPEDTAVYYCNAVPHWFYRYGRYDYWGQGTQVTVSS	low polyreactivity
QVQLVESGGGLDQAGGRLRLICAASGRTFTTYAMGWNRQAPGKERELVASISRRGGSTYYADSVKGRFTISRDNAKNTVYLQMTSLKPEDTAVYYCAAKTGTYRGRQVYTYGYWGQGTQVTVSS	high polyreactivity
QVQLVESGGGLVQAGGSLRLSCAASGYIFPAYAMGWYRQAPGKERELVAAISWSTGSTYYADSVKGRFTISRDNAKNTVYLQMNSLKPEDTAVYYCAAGRPRRVPDHWYIYYYWGQGTQVTVSS	low polyreactivity
QVQLLESGGGLVQAGGSLRLSCAASGSIFDGYGMGWYRQAPGKERELVAGITSGGSTYYADSVKGRFTISRDTAKNTVYLQMNSLKPEDTAVYYCATVVRYSNARGDYWGQGTQVTVSS	low polyreactivity
QVQLVESGGGLVQAGGSLRLSCAASGLIFYYYTMGWYIQAPGKVRELVAAISSAGSTYYADSVKGRFTISRDNAKNTVYLQMNSLKPEDTEVYYCATRSQAQYTRYYGYRQFYYWGQGTQVTVSS	high polyreactivity
QVQLVESGGGLVQAGGSLRLSCAASGFIFRYYAMGWYRQAPWKERELVASITRSGGRTYYADSVKGRFTISRDNAKNTVYLQMNSLKPEDTAVYYCAARHYRSEYEYDYWGQGTQVTVSS	high polyreactivity
QVQLVESGGCLVQAGGSIRLSCAASGSILGFNAMGWSRQAPGKERELVAAISTSGSSTYYADSVKGRFTISRDNATISVYLLMNSLIPEDTAVYYCAKRRGGSRPYYYWGQRTQVTVSS	high polyreactivity
QDQLVESGGGLVQAGGSLRLSCAASGGIIVSYAMGWYRQAPGKEMQLVAAITSGGGTSYSDSVKGRFTISRDNAKNTVYLQMNSLKPEDTAVYYCNADGYLAERFVIRLDEYRHYDYWGQGTQVTVSS	low polyreactivity
QVQLVESGGGLVQAGGSLRLSCAASGFTFRRYAMGWYRQAPGKEREMVAVINVSDGSTYYADSVKGRFTISRDNAKNTVYLQMNSLKPEDTAVYYCAAYLYNRPYQLPGYYDGYGYWGQGTQVTVSS	low polyreactivity
QVQLVESGGRLVQAGGSLRLSCAASGSIFGWYAMGWYRQAPGKESEFVASISVTAGSTYYADSVKWRFTISRDNAKNTVYLQMNSLKPEDTAVFYCAADDYTADAVQRFYYWGQGTQVTVSS	low polyreactivity
QVQLVESGGGLVQAGGSLRVSCAASGRIIGQYAMGWSRQAPGKEWELVASISRRGGSTYYAASVKGRFTISRDNAKKTVYLQMYSLKPEDTAVYYCAKERTYGHYDYWGQGTQVTVSS	high polyreactivity
QGQLVESGGGLVQAGGSLRLSSAASGRIYLTNAMGWYRPAPGKERELVAAITSGGSTYYADSVKGRFTISRDNAKNTVYLQMNSLKPEDTAVYYCNADTDRYWPYEYDYWGQGTQVTVSS	low polyreactivity
QVQLVESGGGLVQAGGSLSLSCAASGLTFYNYAMGWYRQAPGTERELVAAISRSGRTYYADSVKGRFTISRDNAKNTVDLQMNSLKPEDTAVYYCAAGHGGDPGSGYWGQGTEVTVSS	high polyreactivity
